Laboratory results published in PMC4856479.
pKd: −log10 of the molar value.

Tests used:
[1] = target: isolated HOIP-RBR/UbcH5B~ubiquitin complex (UniProt Q96EP0); experiment: AUC
[2] = target: isolated HOIP-RBR/UbcH5B~ubiquitin complex (UniProt Q96EP0); experiment: ITC

Substance	stoichiometry N [1]	pKd [2]
isolated HOIP-RBR/UbcH5B~ubiquitin complex (from UniProt Q96EP0 696-1072; P62837 2-147; P0CG48 1-76)	2	
mono-ubiquitin (untagged, native N- and C-termini) (from UniProt P0CG48 1-76) (natural protein)		< 4.30
